This is an account of results in patent US20220056119A1.

This experiment addresses activin Type II receptors (ActRIIA and ActRIIB) on A204/CAGAx12-Luc cells. As to the kind of experiment: cell-based or functional assay.

B1: Activin A (homodimer of two inhibin betaA subunits), P08476 311-426 (ligand)
chain: GLECDGKVNICCKKQFFVSFKDIGWNDWIIAPSGYHANYCEGECPSHIAGTSGSSLSFHSTVINHYRMRGHSPFANLKSCCVPTKLRPMSMLYYDDGQNIIKKDIQNMIVEECGCS
B1 came in with an activation of the A204/CAGAx12-Luc cell line (Smad 2/3-luciferase reporter), EC50 of 99 pM.

B2: Activin B (homodimer of two inhibin betaB subunits), P09529 293-407 (ligand)
chain: GLECDGRTNLCCRQQFFIDFRLIGWNDWIIAPTSYYGNYCEGSCPAYLAGVPGSASSFHTAVVNQYRMRGLNPGTVNSCCIPTKLSTMSMLYFDDEYNIVKRDVPNMIVEECGCA
Consider B2, for which the activation of the A204/CAGAx12-Luc cell line (Smad 2/3-luciferase reporter), EC50 stood at 47 pM.
